From patent US20260217849A1 (SHANGHAI HUAOTA BIOPHARMACEUTICAL, published 2026) come the findings set out here.

The target in test [1] is T1, human CD73 antigen protein (ACRO Biosystems, Catalog No. CD3-H52H7) (human, UniProt P21589 27-547).
T1 construct: Bought protein; also called Human CD73 dimer protein; human CD73 protein
T1 sequence (looked up): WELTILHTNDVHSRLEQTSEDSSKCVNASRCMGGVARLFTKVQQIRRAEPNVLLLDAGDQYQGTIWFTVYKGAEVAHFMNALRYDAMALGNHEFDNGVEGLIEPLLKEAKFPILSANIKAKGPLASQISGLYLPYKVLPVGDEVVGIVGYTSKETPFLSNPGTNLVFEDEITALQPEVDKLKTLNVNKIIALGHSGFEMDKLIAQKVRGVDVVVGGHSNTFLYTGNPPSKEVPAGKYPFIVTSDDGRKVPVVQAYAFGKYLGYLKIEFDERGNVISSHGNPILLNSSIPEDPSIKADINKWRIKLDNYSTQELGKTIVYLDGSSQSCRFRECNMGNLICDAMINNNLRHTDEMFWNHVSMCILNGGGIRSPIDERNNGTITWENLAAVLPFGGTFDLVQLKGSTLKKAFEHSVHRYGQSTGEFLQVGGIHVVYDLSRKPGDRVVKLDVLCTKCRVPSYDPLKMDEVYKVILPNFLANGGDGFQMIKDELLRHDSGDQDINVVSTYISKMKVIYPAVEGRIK
In words: SPR BIAcore 8k, CD73 captured as ligand, analyte 1 buffer, analyte 2 900698. The text has this: (§1) First, the human CD73 antigen protein (manufacturer: ACRO Biosystems, Catalog No. CD3-H52H7) was captured as a ligand using BIAcore 8k, and then the antibodies were used as analytes.
(In general: Surface plasmon resonance follows binding to a sensor surface in real time, without labels.)

The target of test [2] is T1, human CD73 antigen protein (ACRO …). As to the kind of experiment: SPR BIAcore 8k, CD73 captured as ligand, 900725 added first (competitor), then 900698.
Text: as §1

For test [3] the target is unchanged. As to the kind of experiment: SPR BIAcore 8k, CD73 captured as ligand, analyte 1 buffer, analyte 2 900725.
Text: as §1

The target is the same in test [4]. In words: SPR BIAcore 8k, CD73 captured as ligand, 900698 added first (competitor), then 900725.
Text: as §1

B1: 900698 (antibody, human IgG1, kappa, L234A L235A, V domains shown)
VH: QVQLVESGGGLVKPGGSLRLSCAASGFTFSKYAMSWIRQAPGKGLEWVAEISSGGGYINYADSVKGRFTISRDNAKNSLYLQMNSLRAEDTAVYYCARAIYYYGSSYNYYAMDYWGQGTTVTVSS
VL: DIQMTQSPSSLSASVGDRVTITCRASQDVGTAEAWYQQKPGKAPKLLIYWASTRHTGVPSRFSGSGSGTDFTLTISSLQPEDFATYYCQQYSSYPLTFGQGTKLEIKR
notes: also called component of the anti-CD73 cocktail antibody
A word on the Kd: it is the equilibrium constant for the complex coming apart. A lower Kd goes with a tighter complex. A word on the koff: it is the first-order rate constant of dissociation. In general, kon refers to the second-order rate constant of association. The low end stands for slow association, the high end for fast association. In test [1], B1 showed a Kd of 7.3 nM, a koff of 0.00114 s⁻¹ and a kon of 156000 M⁻¹ s⁻¹. In test [2], this molecule yielded a Kd of 12.6 nM, a koff of 0.0017 s⁻¹ and a kon of 135000 M⁻¹ s⁻¹.

B2: 900725 (antibody, human IgG1, kappa, L234A L235A, V domains shown)
VH: QVQLVQSGAEVKKPGASVKLSCKASGYTFTSYWIHWVRQAPGQGLEWIGMIHPNSGSTYYNEKFKGRATLTVDKSTSTAYMELSSLRSEDTAVYYCARYYGSDYEWYFDVWGQGTTVTVSS
VL: DIQMTQSPSSMSASVGDRVTITCKASQNVRTAVVWYQQKPGKAPKALIYLASNRHTGVPDRFSGSGSGTDFTLTISSLQPEDFATYFCLQHWNYPYTFGQGTKLEIKR
notes: as for B1
For the molecule B2, in test [3], the dissociation constant (Kd) amounted to 3.01 nM, the koff amounted to 0.00452 s⁻¹ and the kon came to 1.5e+06 M⁻¹ s⁻¹. In test [4], this molecule gave a Kd of 4.16 nM, a koff of 0.00591 s⁻¹ and a kon of 1.42e+06 M⁻¹ s⁻¹.
